These results are taken from EP4755914A1 (CSPC Megalith Biopharmaceutical Co., Ltd., dated 2025).

The chains are these.
B1: murine antibody 17-F12-G8-A6 (antibody, V domains shown)
VH: EVTLKESGPGILQPSQTLSLTCSFSGFSLSTSGMGVAWIRQPSGKGLEWLAHIWWDDDKRYNPALKSRLTISKDTSSNQVFLKIASVDTADTATYYCARPQFITTVVAFYWYFDVWGAGTTVTVSS
VL: DILLTQSPASLSVSMGETVTITCRASENIYSNLAWYQQKQGKSPQLLVYAATNLADGVPSRFSGSGSGTQYSLKINSLQSEDFGSYYCQHFWGTPWTFGGGTKLEIK
B2: humanized antibody hu17-H3L1 (antibody, human IgG1, kappa, L234A L235A, V domains shown)
VH: QVTLKESGPTLVKPTQTLTLTCSFSGFSLSTSGMGVAWIRQPPGKALEWLAHIWWDDDKRYNPSLKSRLTITKDTSKNQVVLTMTNMDPVDTATYYCARPQFITTVVAFYWYFDVWGQGTTVTVSS
VL: DILLTQSPSSLSVSVGDRVTITCRASENIYSNLAWYQQKPGKAPKLLVYAATNLADGVPSRFSGSGSGTQYTLTISSLQPEDFATYYCQHFWGTPWTFGGGTKLEIKR
B3: humanized antibody hu17-H4L1 (antibody, human IgG1, kappa, L234A L235A, V domains shown)
VH: B2 VH with S23T, N62G
VL: B2 VL
B4: humanized antibody hu17-H2L1 (antibody, human IgG1, kappa, L234A L235A, V domains shown)
VH: B2 VH with Q1E, S64A, M84I, M87V
VL: B2 VL

Substitutions are numbered along the chain they refer to.

T1 sequence (Q01973 308-395 limits assumed): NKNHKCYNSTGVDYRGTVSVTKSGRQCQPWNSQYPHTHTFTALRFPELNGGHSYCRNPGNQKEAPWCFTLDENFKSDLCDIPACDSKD

One experiment concerns the target T1, ROR1 protein (ACROBiosystems, Cat# RO1-H5223) (UniProt Q01973 308-395).
T1 construct: Bought protein
Nature of the experiment: ELISA on ROR1 protein, anti-IgG secondary antibody, OD450.
B1 displayed a concentration for a half-maximal effect (EC50) of 0.00136 µg/mL.

B2 displayed an EC50 of 0.0014 µg/mL.

The molecule B3 gave an EC50 of 0.00116 µg/mL.

The molecule B4 gave an EC50 of 0.00142 µg/mL.

For a further experiment, the target named is T2, ROR1 antigen (UniProt Q01973 30-403, limits assumed).
T2 construct: construct not described
T2 sequence (Q01973 30-403 limits assumed): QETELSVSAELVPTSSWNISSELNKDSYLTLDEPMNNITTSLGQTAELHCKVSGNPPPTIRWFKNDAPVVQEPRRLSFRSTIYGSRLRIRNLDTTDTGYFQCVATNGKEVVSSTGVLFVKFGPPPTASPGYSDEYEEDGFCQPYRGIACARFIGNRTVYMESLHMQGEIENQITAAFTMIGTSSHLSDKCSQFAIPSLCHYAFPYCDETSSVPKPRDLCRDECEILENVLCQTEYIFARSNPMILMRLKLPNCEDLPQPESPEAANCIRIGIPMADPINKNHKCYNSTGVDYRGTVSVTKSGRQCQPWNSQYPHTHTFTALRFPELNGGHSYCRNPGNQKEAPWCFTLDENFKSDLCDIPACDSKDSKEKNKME
Nature of the experiment: BLI (Octet RED96e), antibody on sensor, ROR1 antigen from 100 nM in 2-fold dilutions.
On to B1, for which the Kd was 14.8 nM, the koff turned out to be 0.0105 s⁻¹ and the kon is 708000 M⁻¹ s⁻¹.

In turn, B2 gave a dissociation constant Kd of 32.4 nM, a koff of 0.0279 s⁻¹ and an on-rate constant (kon) of 859000 M⁻¹ s⁻¹.

On to B3, for which the Kd amounted to 20 nM, the off-rate (koff) stood at 0.0147 s⁻¹ and the association rate constant (kon) turned out to be 738000 M⁻¹ s⁻¹.

For the molecule B4, the Kd came out at 22.7 nM, the off-rate constant (koff) was 0.0185 s⁻¹ and the kon turned out to be 814000 M⁻¹ s⁻¹.

Another experiment deals with T3, ROR1 on stably transgenic ROR1-expressing cells MDA-MB-231-ROR1 (UniProt Q01973 30-937, limits assumed).
T3 construct: whole, on cells
T3 sequence (Q01973 30-937 limits assumed): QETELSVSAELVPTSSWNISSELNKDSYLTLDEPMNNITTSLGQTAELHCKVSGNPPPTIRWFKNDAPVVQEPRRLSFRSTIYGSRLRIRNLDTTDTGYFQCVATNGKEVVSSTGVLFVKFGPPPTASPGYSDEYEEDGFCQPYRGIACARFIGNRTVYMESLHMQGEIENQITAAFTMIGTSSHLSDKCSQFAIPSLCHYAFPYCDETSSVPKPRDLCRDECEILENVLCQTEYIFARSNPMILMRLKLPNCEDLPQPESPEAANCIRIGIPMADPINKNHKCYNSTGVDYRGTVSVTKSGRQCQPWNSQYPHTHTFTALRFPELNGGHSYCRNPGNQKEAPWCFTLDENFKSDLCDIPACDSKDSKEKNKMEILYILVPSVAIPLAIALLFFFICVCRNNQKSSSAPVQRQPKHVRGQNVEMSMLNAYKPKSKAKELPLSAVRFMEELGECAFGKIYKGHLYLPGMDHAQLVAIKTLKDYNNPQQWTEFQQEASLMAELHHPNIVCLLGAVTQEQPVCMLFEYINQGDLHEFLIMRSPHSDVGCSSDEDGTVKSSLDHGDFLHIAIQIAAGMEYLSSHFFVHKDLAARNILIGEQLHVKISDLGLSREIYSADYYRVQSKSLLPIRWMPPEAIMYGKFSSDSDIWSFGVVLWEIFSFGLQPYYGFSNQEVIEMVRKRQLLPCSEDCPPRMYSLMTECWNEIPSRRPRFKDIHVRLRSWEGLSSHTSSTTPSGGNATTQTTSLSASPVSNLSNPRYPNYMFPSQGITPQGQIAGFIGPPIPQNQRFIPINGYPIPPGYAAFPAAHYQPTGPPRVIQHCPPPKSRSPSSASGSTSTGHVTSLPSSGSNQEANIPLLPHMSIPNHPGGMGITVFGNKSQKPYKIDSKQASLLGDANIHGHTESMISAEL
Nature of the experiment: flow cytometry on MDA-MB-231-ROR1 cells.
B1 gave an EC50 of 0.0988 µg/mL.

Consider B2, for which the EC50 worked out at 0.107 µg/mL.

Take B3: the EC50 worked out at 0.101 µg/mL.

The molecule B4 had an EC50 of 0.114 µg/mL.
